Series [1] has as its target T1, MBP-TDR (Oryza sativa (ORF cloned from ZH11), UniProt Q6YUS3 1-552). In words: EMSA; EMSA: 10 mM Tris-HCl pH 7.5, 50 mM KCl, 5 mM MgCl2, 1 mM DTT, 2.5% glycerol, 0.05% NP-40, 50 ng/uL poly(dI-dC), 10 fmol probe, 1 ug protein in 20 uL, room tempe. In general terms: Mobility shift assays separate free from complexed probe on a gel.
The target of series [2] is T1, MBP-TDR. The experiment in a line: competition; 10-, 20-, 100-fold excess unlabeled probe eliminates shift; EMSA: 10 mM Tris-HCl pH 7.5, 50 mM KCl, 5 mM MgCl2, 1 mM DTT, 2.5% glycerol, 0.05% NP-40, 50 ng/uL poly(dI-dC), 10 fmol probe, 1 ug protein in 20 uL, room tempe.

B1: EAT1 promoter P1 probe (dsDNA)
DNA 1: GCGTATCGTGGTCATCTGTCTATTTTACATGCACTTGTAGCTGGATAAA
DNA 2: TTTATCCAGCTACAAGTGCATGTAAAATAGACAGATGACCACGATACGC
For B1, the binding result in series [1] is reported as “binds”.

B2: EAT1 promoter P1 unlabeled competitor (dsDNA)
DNA 1: GCGTATCGTGGTCATCTGTCTATTTTACATGCACTTGTAGCTGGATAAA
DNA 2: TTTATCCAGCTACAAGTGCATGTAAAATAGACAGATGACCACGATACGC
As for B2, the binding result in series [2] is reported as “binds”.

Values taken from publication PMC9018702.
